This data set deals with ATP. Briefly: switch fluorescence ratio, 500 uM ATP over buffer (Cy3 cluster intensity, sum of 5 cycles each) (fold (ratio)); higher = stronger signal-on switching upon ATP binding; sequences stand for … in TCGTCGGCAGCGTCAGATGTGTATAAGAGACAGTTTTTTTTTTTTTTTTTTTTTTTTT…TC. The conditions noted are these: aptamer strand: ATP DNA aptamer (quencher-CACCTGGGGGAGTATTGCGGAGGAAGG + anchor), 100 nM annealed; ATP concentration: 500 uM. The procedure, abridged: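 Cy3-labelled switching-strand clusters on a modified Illumina MiSeq flow-cell were annealed to 100 nM quencher-labelled ATP aptamer and imaged first in selection buffer, then after 15 min with 500 uM ATP at 22 °C. NaOH stripping and re-annealing separated each of five buffer/ATP cycles, and clusters outside 100-1000 RFU were excluded. The fluorescence ratio sums target-cycle Cy3 intensity over buffer-cycle Cy3 intensity per cluster and averages it per switch-domain sequence.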

The values that follow come from the supplement of paper PMC10126150.

± gives the standard deviation of the averaged measurements.
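Note: ATP exposure 15 min at 22 °C before imaging.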

As for TTCTTTTTCG, the switch fluorescence ratio was found to be 0.973 ± 0.056. For TTCTTTTTGA the value was 1.43 ± 0.59; for TTCTTTTTTT, 1.01 ± 0.032; for TTGAAAATGT, 0.96 ± 0.0076. The value for TTGAAAGGTG was 1.29 ± 0.24. The value for TTGAAAGTG was 0.9785 ± 0.0043; that for TTGAAATAG was 0.9957 ± 0.0097; that for TTGAAATAGG was 1.03 ± 0.011.

As for TTGAAATAGT, the switch fluorescence ratio was determined as 1.01 ± 0.024. The value for TTGAAATTAA was 1.01 ± 0.025; that for TTGAAATTTT was 1.001 ± 0.0077. The value for TTGAACGTGT was 0.994 ± 0.042; that for TTGAAGGCGG was 1.02 ± 0.024; that for TTGAAGGGTG was 1.05 ± 0.11. The value for TTGAAGGTGG was 1.08 ± 0.12. As to TTGAATGGTC, the switch fluorescence ratio is 0.979 ± 0.081.

Take TTGAATTAGA: the switch fluorescence ratio came out at 0.965 ± 0.025.

Consider TTGAATTTAG, for which the switch fluorescence ratio was determined as 0.986 ± 0.015.

TTGAATTTGA: the switch fluorescence ratio is 1 ± 0.028.

For TTGACACTGG, the switch fluorescence ratio stood at 1.04 ± 0.02.

On to TTGACAGTAA, for which the switch fluorescence ratio is 1.08 ± 0.014.

For the sequence TTGACATCCC, the switch fluorescence ratio turned out to be 1.07 ± 0.032. The value for TTGACGAGGT was 1.07 ± 0.078; that for TTGACGATGA was 1.04 ± 0.025. The value for TTGACGCGTG was 0.982 ± 0.023; that for TTGACGGTGA was 1.06 ± 0.033; that for TTGACTAAGG was 1.01 ± 0.044.

For the sequence TTGACTATCG, the switch fluorescence ratio was 1 ± 0.076.

Consider TTGACTTGTT, for which the switch fluorescence ratio is 1.02 ± 0.068. For TTGACTTTGG the value was 0.959 ± 0.02; for TTGAGAAAGG, 1.02 ± 0.025; for TTGAGAAAGT, 1.47 ± 0.68. The value for TTGAGAAGTT was 1.01 ± 0.021.

Regarding TTGAGAGGAT, the switch fluorescence ratio is 0.972 ± 0.021. For TTGAGAGTCT the value was 1.01 ± 0.18; for TTGAGATACG, 1.001 ± 0.0057; for TTGAGATCCT, 1.027 ± 0.0084. The value for TTGAGCCGGT was 1 ± 0.045; that for TTGAGCGGGG was 0.9876 ± 0.005. The value for TTGAGGACAG was 1.02 ± 0.025; that for TTGAGGATAG was 0.987 ± 0.021; that for TTGAGGCCCG was 0.9375 ± 0.0031.

As to TTGAGGGAGA, the switch fluorescence ratio came out at 1.02 ± 0.058.

Take TTGAGGGCCT: the switch fluorescence ratio was found to be 0.979 ± 0.021.

As for TTGAGGGGGA, the switch fluorescence ratio is 1.01 ± 0.014. For TTGAGGGGTG the value was 0.996 ± 0.037. For TTGAGGGTAT the value was 0.998 ± 0.023. In the case of TTGAGGTTAT, the switch fluorescence ratio stood at 1.02 ± 0.061. For TTGAGGTTGG the value was 1 ± 0.026. The value for TTGAGTCAAT was 1.044 ± 0.0078; that for TTGAGTGGGA was 0.989 ± 0.02; that for TTGAGTGGGC was 0.979 ± 0.031. For TTGAGTTGGG, the switch fluorescence ratio is 0.973 ± 0.041.

Turning to TTGAGTTTAA, the switch fluorescence ratio amounted to 1.003 ± 0.0065. For TTGATAAAAG the value was 1.03 ± 0.08; for TTGATAATAG, 1 ± 0.024; for TTGATAGACG, 1.07 ± 0.042. With TTGATAGTCG, the switch fluorescence ratio came out at 0.969 ± 0.024.

Take TTGATATCAT: the switch fluorescence ratio stood at 0.97 ± 0.049. For TTGATATGAC the value was 1.014 ± 0.0094. For TTGATCCAGC the value was 0.9958 ± 0.0068. Regarding TTGATCGGGC, the switch fluorescence ratio came to 1.03 ± 0.052. For TTGATGAACA the value was 1 ± 0.024; for TTGATGACGG, 0.9872 ± 0.0016.

As to TTGATGCTAT, the switch fluorescence ratio turned out to be 1.32 ± 0.43.

Consider TTGATGGTGG, for which the switch fluorescence ratio stood at 0.987 ± 0.056. For TTGATGTTCG the value was 0.976 ± 0.015; for TTGATTAGTT, 0.982 ± 0.036. For the sequence TTGATTATTA, the switch fluorescence ratio was 1.02 ± 0.045.

As for TTGATTCTGA, the switch fluorescence ratio is 0.992 ± 0.034. For TTGATTGAGG the value was 1 ± 0.017; for TTGATTGGAT, 1 ± 0.014; for TTGATTGGGC, 0.989 ± 0.025.

In the case of TTGATTGTTT, the switch fluorescence ratio came to 0.987 ± 0.016. The value for TTGATTTACT was 0.993 ± 0.03; that for TTGATTTGTG was 0.997 ± 0.012. The value for TTGATTTTAG was 1 ± 0.031; that for TTGCAATTTA was 1.06 ± 0.033. The value for TTGCAGGGGT was 1.14 ± 0.25. Take TTGCAGGGTG: the switch fluorescence ratio amounted to 1.17 ± 0.035. TTGCATGGGT: the switch fluorescence ratio was determined as 1.01 ± 0.039. TTGCCAGGGA: the switch fluorescence ratio was determined as 0.995 ± 0.014. Turning to TTGCCATCCT, the switch fluorescence ratio was 0.98 ± 0.042. The value for TTGCGAGGTG was 1.039 ± 0.0055.

Turning to TTGCGATATT, the switch fluorescence ratio came out at 1.27 ± 0.36. The value for TTGCGGCTTG was 0.9923 ± 0.0088. For TTGCGGTAGC the value was 1 ± 0.016; for TTGCGTATGA, 1.04 ± 0.063. The value for TTGCGTGCCG was 0.98 ± 0.11; that for TTGCGTGCTT was 1.01 ± 0.027; that for TTGCGTTTTT was 1 ± 0.024. With TTGCTACATA, the switch fluorescence ratio turned out to be 1.07 ± 0.011.

TTGCTATAGA: the switch fluorescence ratio was 1.01 ± 0.017. With TTGCTATATT, the switch fluorescence ratio was 1.01 ± 0.032. As for TTGCTATTTC, the switch fluorescence ratio came to 1 ± 0.058. The value for TTGCTCTGGA was 1.02 ± 0.015; that for TTGCTGAGGA was 0.962 ± 0.015; that for TTGCTGTGTG was 1.011 ± 0.0042. The value for TTGCTTTAGA was 0.974 ± 0.012. The value for TTGCTTTTGG was 1.04 ± 0.11. For TTGGAAATTA, the switch fluorescence ratio came to 1.036 ± 0.0082. For TTGGAACATA, the switch fluorescence ratio worked out at 0.986 ± 0.03. For TTGGAAGGGC the value was 1.012 ± 0.0063. For TTGGACGCCG the value was 1.07 ± 0.041; for TTGGAGAAA, 1.27 ± 0.36; for TTGGAGATTT, 1.02 ± 0.022. As for TTGGAGGAGA, the switch fluorescence ratio came out at 1.029 ± 0.005. For TTGGAGGGGA the value was 1.01 ± 0.018; for TTGGATAGAG, 0.996 ± 0.013; for TTGGATAGGT, 0.981 ± 0.027. The value for TTGGATATGT was 0.9573 ± 0.0047. The value for TTGGATGGGA was 1 ± 0.034; that for TTGGATTAAC was 1.01 ± 0.029. With TTGGATTTGG, the switch fluorescence ratio was 1.02 ± 0.051. The value for TTGGATTTTT was 0.992 ± 0.041; that for TTGGCAAAGG was 1.1 ± 0.19. For TTGGCAACTT the value was 1.03 ± 0.03; for TTGGCAGATT, 1.004 ± 0.0061; for TTGGCATAGT, 0.989 ± 0.031. For the sequence TTGGCATCCT, the switch fluorescence ratio was determined as 1.0176 ± 0.00051.
